Data as given in patent US20180244760A1.

Assays:
[1] = molecular target: Clostridium difficile toxin A (TcdA) (Clostridium difficile) (UniProt P16154); test: ELISA, plate coated with 1 ug/ml TcdA
[2] = molecular target: Clostridium difficile toxin A (TcdA) (Clostridium difficile) (UniProt P16154); test: cell-based or functional assay

Clostridium difficile toxin A (TcdA) (Clostridium difficile), sequence (P16154 whole entry): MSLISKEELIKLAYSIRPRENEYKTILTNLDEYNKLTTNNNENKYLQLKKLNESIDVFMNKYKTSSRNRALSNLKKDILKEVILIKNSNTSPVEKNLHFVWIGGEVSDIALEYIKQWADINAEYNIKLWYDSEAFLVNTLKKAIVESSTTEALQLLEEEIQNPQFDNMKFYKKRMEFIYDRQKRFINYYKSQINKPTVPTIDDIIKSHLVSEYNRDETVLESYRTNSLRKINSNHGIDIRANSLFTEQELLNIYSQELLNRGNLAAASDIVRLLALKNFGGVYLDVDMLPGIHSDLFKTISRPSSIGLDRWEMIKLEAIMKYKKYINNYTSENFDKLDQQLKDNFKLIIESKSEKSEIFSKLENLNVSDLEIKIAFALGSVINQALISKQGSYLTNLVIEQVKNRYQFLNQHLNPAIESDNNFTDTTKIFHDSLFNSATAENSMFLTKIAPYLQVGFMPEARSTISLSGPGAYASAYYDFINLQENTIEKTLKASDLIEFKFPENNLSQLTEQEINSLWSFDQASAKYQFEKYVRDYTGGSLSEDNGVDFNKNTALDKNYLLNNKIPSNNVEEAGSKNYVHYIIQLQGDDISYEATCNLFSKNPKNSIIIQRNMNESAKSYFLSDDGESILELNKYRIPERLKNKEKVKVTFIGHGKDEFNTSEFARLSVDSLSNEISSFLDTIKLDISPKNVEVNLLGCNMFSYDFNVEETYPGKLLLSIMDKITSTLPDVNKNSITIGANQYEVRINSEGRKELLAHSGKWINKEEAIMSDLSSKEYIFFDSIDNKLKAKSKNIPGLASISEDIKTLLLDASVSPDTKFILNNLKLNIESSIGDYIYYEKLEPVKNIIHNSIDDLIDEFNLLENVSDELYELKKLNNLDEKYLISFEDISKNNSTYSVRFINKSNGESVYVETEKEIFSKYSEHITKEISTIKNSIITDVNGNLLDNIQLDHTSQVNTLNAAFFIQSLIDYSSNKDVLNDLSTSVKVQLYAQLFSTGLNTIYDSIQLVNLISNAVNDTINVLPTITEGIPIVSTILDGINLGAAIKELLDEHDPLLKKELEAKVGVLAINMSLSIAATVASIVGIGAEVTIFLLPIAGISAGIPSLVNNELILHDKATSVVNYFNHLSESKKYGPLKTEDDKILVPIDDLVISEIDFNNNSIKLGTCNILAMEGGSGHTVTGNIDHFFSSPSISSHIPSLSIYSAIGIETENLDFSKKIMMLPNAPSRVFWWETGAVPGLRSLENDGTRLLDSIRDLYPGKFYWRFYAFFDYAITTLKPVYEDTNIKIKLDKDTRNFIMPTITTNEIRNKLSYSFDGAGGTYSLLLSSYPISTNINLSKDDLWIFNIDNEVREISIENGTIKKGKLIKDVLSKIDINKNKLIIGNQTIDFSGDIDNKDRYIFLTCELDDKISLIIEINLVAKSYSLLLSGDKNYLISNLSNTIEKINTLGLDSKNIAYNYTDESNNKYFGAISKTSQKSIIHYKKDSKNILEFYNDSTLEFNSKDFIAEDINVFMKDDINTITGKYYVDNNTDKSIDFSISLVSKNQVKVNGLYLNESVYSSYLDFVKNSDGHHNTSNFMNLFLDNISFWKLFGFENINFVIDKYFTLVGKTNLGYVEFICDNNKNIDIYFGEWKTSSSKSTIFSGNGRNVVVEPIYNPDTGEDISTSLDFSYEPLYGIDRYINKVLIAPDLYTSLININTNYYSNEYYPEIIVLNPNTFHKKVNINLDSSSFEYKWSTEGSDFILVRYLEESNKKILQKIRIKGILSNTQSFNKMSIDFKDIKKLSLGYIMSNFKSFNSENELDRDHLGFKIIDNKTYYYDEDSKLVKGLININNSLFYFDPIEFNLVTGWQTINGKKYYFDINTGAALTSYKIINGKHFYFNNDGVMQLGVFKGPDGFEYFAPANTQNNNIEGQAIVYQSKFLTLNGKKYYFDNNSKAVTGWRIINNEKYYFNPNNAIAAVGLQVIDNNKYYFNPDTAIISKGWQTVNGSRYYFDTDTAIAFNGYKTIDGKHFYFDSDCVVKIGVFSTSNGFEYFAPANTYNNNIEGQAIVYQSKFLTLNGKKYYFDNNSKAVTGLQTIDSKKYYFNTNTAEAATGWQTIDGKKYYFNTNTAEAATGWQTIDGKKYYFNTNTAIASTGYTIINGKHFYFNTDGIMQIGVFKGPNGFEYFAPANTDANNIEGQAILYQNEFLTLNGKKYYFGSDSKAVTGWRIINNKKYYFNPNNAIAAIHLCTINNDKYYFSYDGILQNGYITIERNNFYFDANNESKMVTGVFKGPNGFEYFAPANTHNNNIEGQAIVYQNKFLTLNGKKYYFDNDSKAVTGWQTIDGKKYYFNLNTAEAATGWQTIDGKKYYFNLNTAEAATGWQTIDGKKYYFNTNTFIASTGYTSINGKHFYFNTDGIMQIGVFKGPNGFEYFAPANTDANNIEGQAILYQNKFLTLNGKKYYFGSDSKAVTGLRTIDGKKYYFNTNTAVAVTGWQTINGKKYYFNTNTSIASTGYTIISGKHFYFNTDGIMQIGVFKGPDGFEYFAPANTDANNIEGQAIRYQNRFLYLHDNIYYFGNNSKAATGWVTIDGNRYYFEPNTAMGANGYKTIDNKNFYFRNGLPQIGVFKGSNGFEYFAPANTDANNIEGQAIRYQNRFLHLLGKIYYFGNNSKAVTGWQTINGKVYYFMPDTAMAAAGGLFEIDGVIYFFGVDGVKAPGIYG

**Q.** For “Merck anti-TcdA human monoclonal antibody”, which EC50 (read off the curve) [1] is on record?
**A.** The EC50 (read off the curve) was 2 ng/mL.

**Q.** What about the minimal dose of antibody protecting Vero cells from TcdA-induced cell rounding [2] of the same substance?
**A.** Its minimal dose of antibody protecting Vero cells from TcdA-induced cell rounding is greater than 10 nM.
